Laboratory results from US20070275049A1.

Legend:
[1] = molecular target: EGFR-derived peptide(s) on MHC class I (H-2Kb/H-2Db) of EGFR-positive LL/2c tumor cells (mouse)
[2] = molecular target: EGFR-derived peptide(s) on MHC class I of EGFR-positive MA782/5S tumor cells (mouse)

Substance “spleen T cells of mice immunized by chEGFR molecular vaccine (cells without a defined receptor)” has a specific cytocidal activity, standard Cr51 test, at the ratio of 40:1 [1] of 40.3% and a specific cytocidal activity, standard Cr51 test, at the ratio of 40:1 [2] of 42.8%.
